{
  "source": "paper PMC11761711",
  "about": "“Insights into the flexibility of the domain‐linking loop in actinobacterial coproheme decarboxylase through structures and molecular dynamics simulations” (Protein Science : A Publication of the Protein Society, 2025)",
  "proteins": {"B1": {"name": "Corynebacterium diphtheriae coproheme decarboxylase (enzyme)", "chain": "MAEKLNFEELNSMQRYSQFAVFRAIPGALGSDRAEIVAQAQSFFDGLETAGKVEVRGIYDLAGCRAEADFMIWWIAEEFEEIQAAFARFRRETVLGQVSEVAWLGNSLHRPAEFNRSHLPSFIMGEIPGDWITVYPFVRSYDWYIMDPQKRRKILAEHGQAARDFPDVRANTVPAFALGDYEWMLAFEAPRLDRIVDLMHKMRYTEARLHVREETPFFTGRRVSEVSELVNVLP", "notes": "coproheme decarboxylase (ChdC) of Corynebacterium diphtheriae, wild type; Homopentamer; also called CdChdC; apo-CdChdC; source: recombinant, expressed and purified as described previously (Michlits et al. 2020); Ni2+ column, HRV 3C protease cleavage, SEC"}},
  "biological_target": "the molecule itself",
  "assay": "cryo-EM structure; apo-CdChdC, SEC-purified, 70 to 120 uM on grids, single-particle reconstruction with C5 symmetry, 2.27 A",
  "data": [
    {"protein": "B1", "values": [
      {"measurement": "stoichiometry N", "value": 5}
    ]}
  ]
}
